This is an account of results in the supplement of paper PMC10567573.

To fix the notation:
B1: SPSB1 (parent)
chain: DMRDPTYRPLKQELQGLDYCKPTR
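Note: lentivirally expressed fusions sorted by FACS into six bins by GFP to DsRed ratio, PSI derived from sequencing read proportions per bin multiplied by bin number.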

Variants of B1 are the subject of this series. Briefly: protein stability index of a GFP-peptide fusion (GPS, HEK-293T) (PSI 1-6); higher = more stable. The note with it: c terminus: a fixed tail appended.
Turning to DMRDPTYRPLKQELQILDYCKPTR [G16I], the protein stability index was determined as 2.17.
Then DMRDPTYRPLKQELQVLDYCKPTR [G16V], with 2.71; and DMRDPTYRPLKQELQFLDYCKPTR [G16F], with 2.24; and DMRDPTYRPLKQELQNLDYCKPTR [G16N], with 3.24.
In the case of DMRDPTWRPLKQELQGLDYCKPTR [Y7W] it was 3.1; in that of DMRDPTLRPLKQELQGLDYCKPTR [Y7L], 3.25; in that of DMRDPTCRPLKQELQGLDYCKPTR [Y7C], 3.14.
DMRDPTQRPLKQELQGLDYCKPTR [Y7Q]: the protein stability index worked out at 4.24.
Then DMRDPTERPLKQELQGLDYCKPTR [Y7E], with 3.86; and DMRDPTNRPLKQELQGLDYCKPTR [Y7N], with 3.34.
Regarding DMRDPTHRPLKQELQGLDYCKPTR [Y7H], the protein stability index stood at 2.79.
In the case of DMRDPTMRPLKQELQGLDYCKPTR [Y7M] it was 2.64; in that of DMRDPTSRPLKQELQGLDYCKPTR [Y7S], 2.93; in that of DMRDPTIRPLKQELQGLDYCKPTR [Y7I], 2.54.
In the case of DRRDPTYRPLKQELQGLDYCKPTR [M2R] it was 3.71.
Then DNRDPTYRPLKQELQGLDYCKPTR [M2N], with 3.38; and DGRDPTYRPLKQELQGLDYCKPTR [M2G], with 3.78; and DYRDPTYRPLKQELQGLDYCKPTR [M2Y], with 2.72.
Consider DQRDPTYRPLKQELQGLDYCKPTR [M2Q], for which the protein stability index stood at 3.26.
For DERDPTYRPLKQELQGLDYCKPTR [M2E], the protein stability index was 3.51.
Consider DPRDPTYRPLKQELQGLDYCKPTR [M2P], for which the protein stability index was found to be 4.62.
DIRDPTYRPLKQELQGLDYCKPTR [M2I]: the protein stability index was determined as 3.19.
As to DDRDPTYRPLKQELQGLDYCKPTR [M2D], the protein stability index was determined as 3.86.
With DTRDPTYRPLKQELQGLDYCKPTR [M2T], the protein stability index amounted to 2.64.
As for DMRDPTYRPHKQELQGLDYCKPTR [L10H], the protein stability index came out at 3.11.
Then DMRDPTYRPEKQELQGLDYCKPTR [L10E], with 4.03; and DMRDPTYRPNKQELQGLDYCKPTR [L10N], with 3.16.
Then DMRDPTYRPDKQELQGLDYCKPTR [L10D], with 3.76; and DMRDPTYRPPKQELQGLDYCKPTR [L10P], with 3.37; and DMRDPTYRPTKQELQGLDYCKPTR [L10T], with 3.74.
For DMRDPTYRPGKQELQGLDYCKPTR [L10G], the protein stability index stood at 3.49.
On to DMEDPTYRPLKQELQGLDYCKPTR [R3E], for which the protein stability index was 3.84.
With DMPDPTYRPLKQELQGLDYCKPTR [R3P], the protein stability index came to 3.36.
As to DMADPTYRPLKQELQGLDYCKPTR [R3A], the protein stability index amounted to 3.16.
In the case of DMNDPTYRPLKQELQGLDYCKPTR [R3N] it was 3.19.
In the case of DMSDPTYRPLKQELQGLDYCKPTR [R3S] it was 3.89; in that of DMIDPTYRPLKQELQGLDYCKPTR [R3I], 2.96; in that of DMLDPTYRPLKQELQGLDYCKPTR [R3L], 2.9.
DMCDPTYRPLKQELQGLDYCKPTR [R3C]: the protein stability index stood at 2.9.
Then DMWDPTYRPLKQELQGLDYCKPTR [R3W], with 3.14; and DMFDPTYRPLKQELQGLDYCKPTR [R3F], with 2.92.
On to DMHDPTYRPLKQELQGLDYCKPTR [R3H], for which the protein stability index stood at 3.08.
Then DMRDPTYRPLKQELQGLDYCKPFR [T23F], with 2.09; and DMRDPTYRPLKQELQGLDYCKPCR [T23C], with 3.3; and DMRDPTYRPLKQELQGLDYCKPHR [T23H], with 3.19.
On to DMRDPTYRPLKQELQGLDYCKPYR [T23Y], for which the protein stability index was found to be 2.5.
In the case of DMRDPTYRPLKQELQGLDYCKPRR [T23R] it was 4.3; in that of DMRDPTYRPLKQELQGLDYCKPKR [T23K], 3.9.
With DMRDPTYRPLKQELQGLDYCKPSR [T23S], the protein stability index came to 2.92.
Consider DMRDPTYRPLKQELQGLDYCKPAR [T23A], for which the protein stability index came to 3.18.
DMRDPTYRPLKQELQGLDYCKPLR [T23L]: the protein stability index is 2.99.
Then DMRDPTYRPLKQELQGLDYCKPMR [T23M], with 2.87; and DMRDPTYRILKQELQGLDYCKPTR [P9I], with 3.32; and DMRDPTYRTLKQELQGLDYCKPTR [P9T], with 2.64.
Then DMRDPTYRQLKQELQGLDYCKPTR [P9Q], with 2.72; and DMRDPTYRLLKQELQGLDYCKPTR [P9L], with 2.58; and DMRDPTYRELKQELQGLDYCKPTR [P9E], with 3.67.
Consider DMRDPTYRPLKQELQGLDYCKDTR [P22D], for which the protein stability index amounted to 4.68.
In the case of DMRDPTYRPLKQELQGLDYCKHTR [P22H], the protein stability index worked out at 4.15.
Then DMRDPTYRPLKQELQGLDYCKRTR [P22R], with 4.4; and DMRDPTYRPLKQELQGLDYCKMTR [P22M], with 3.07.
For DMRDPTYRPLKQELQGLDYCKTTR [P22T], the protein stability index turned out to be 3.07.
In the case of DMRDPTYRPLKQELQGLDYCKKTR [P22K] it was 4.35; in that of DMRDPTYRPLKQELQGLDYCKVTR [P22V], 2.9; in that of DMRDPTYRPLKQELQGLDYCKATR [P22A], 3.44.
On to DMRDPTYRPLKQELQGLDYCKQTR [P22Q], for which the protein stability index is 4.26.
As for DMRDPTYRPLKQEEQGLDYCKPTR [L14E], the protein stability index was determined as 2.43.
Then DMRDPTYRPLKQEAQGLDYCKPTR [L14A], with 4.04; and DMRDPTYRPLKQESQGLDYCKPTR [L14S], with 4.24.
In the case of DMRDPTYRPLKQEPQGLDYCKPTR [L14P] it was 3.89; in that of DMRDPTYRPLKQEHQGLDYCKPTR [L14H], 4.03.
DMRDPTYRPLKQEYQGLDYCKPTR [L14Y]: the protein stability index was 3.49.
Take DMRDPTYRPLKQEDQGLDYCKPTR [L14D]: the protein stability index came out at 3.83.
Take DMRDPTYRPLKQEMQGLDYCKPTR [L14M]: the protein stability index was 3.68.
On to DMRDPTYRPLKQEGQGLDYCKPTR [L14G], for which the protein stability index is 4.04.
Then DMRDPTYRPLKQERQGLDYCKPTR [L14R], with 3.42.
DMRDPTYRPLKQEKQGLDYCKPTR [L14K]: the protein stability index was found to be 4.5.
In the case of DMREPTYRPLKQELQGLDYCKPTR [D4E] it was 3.24; in that of DMRAPTYRPLKQELQGLDYCKPTR [D4A], 3.54; in that of DMRPPTYRPLKQELQGLDYCKPTR [D4P], 2.72.
Then DMRTPTYRPLKQELQGLDYCKPTR [D4T], with 2.8; and DMRYPTYRPLKQELQGLDYCKPTR [D4Y], with 2.83.
Take DMRNPTYRPLKQELQGLDYCKPTR [D4N]: the protein stability index was 2.74.
Then DMRVPTYRPLKQELQGLDYCKPTR [D4V], with 2.81.
In the case of DMRDPTYRPLLQELQGLDYCKPTR [K11L] it was 3.24; in that of DMRDPTYRPLIQELQGLDYCKPTR [K11I], 2.88; in that of DMRDPTYRPLPQELQGLDYCKPTR [K11P], 3.3.
DMRDPTYRPLSQELQGLDYCKPTR [K11S]: the protein stability index was 3.76.
In the case of DMRDPTYRPLRQELQGLDYCKPTR [K11R] it was 3.54; in that of DMRDPTYRPLTQELQGLDYCKPTR [K11T], 3.17.
Then DMRDPTYRPLKQELRGLDYCKPTR [Q15R], with 3.54; and DMRDPTYRPLKQELVGLDYCKPTR [Q15V], with 2.73; and DMRDPTYRPLKQELPGLDYCKPTR [Q15P], with 2.67.
As for DMRDPTYRPLKQELAGLDYCKPTR [Q15A], the protein stability index was 3.32.
